Test results taken from paper doi:10.1101/412908 (bioRxiv, 2018).

B1: acrylodan-labeled C-terminal domain of Aha1 (164-338) (domain or fragment)
chain: ILPTMNGESVDPVGQPALKTEERKAKPAPSKTQARPVGVKIPTCKITLKETFLTSPEELYRVFTTQELVQAFTHAPATLEADRGGKFHMVDGNVSGEFTDLVPEKHIVMKWRFKSWPEGHFATITLTFIDKNGETELCMEGRGIPAPEEERTRQGWQRYYFEGIKQTFGYGARLF
modifications: acrylodan (thiol-reactive probe on cysteine residues)
B2: human Hsp90β (natural protein)
chain: not shown

Columns and labels:
human Hsp90β = target: B2; experiment: other fluorescence titration
[1] = target: B1; experiment: other fluorescence titration

Chain of human Hsp90β (P08238 whole entry): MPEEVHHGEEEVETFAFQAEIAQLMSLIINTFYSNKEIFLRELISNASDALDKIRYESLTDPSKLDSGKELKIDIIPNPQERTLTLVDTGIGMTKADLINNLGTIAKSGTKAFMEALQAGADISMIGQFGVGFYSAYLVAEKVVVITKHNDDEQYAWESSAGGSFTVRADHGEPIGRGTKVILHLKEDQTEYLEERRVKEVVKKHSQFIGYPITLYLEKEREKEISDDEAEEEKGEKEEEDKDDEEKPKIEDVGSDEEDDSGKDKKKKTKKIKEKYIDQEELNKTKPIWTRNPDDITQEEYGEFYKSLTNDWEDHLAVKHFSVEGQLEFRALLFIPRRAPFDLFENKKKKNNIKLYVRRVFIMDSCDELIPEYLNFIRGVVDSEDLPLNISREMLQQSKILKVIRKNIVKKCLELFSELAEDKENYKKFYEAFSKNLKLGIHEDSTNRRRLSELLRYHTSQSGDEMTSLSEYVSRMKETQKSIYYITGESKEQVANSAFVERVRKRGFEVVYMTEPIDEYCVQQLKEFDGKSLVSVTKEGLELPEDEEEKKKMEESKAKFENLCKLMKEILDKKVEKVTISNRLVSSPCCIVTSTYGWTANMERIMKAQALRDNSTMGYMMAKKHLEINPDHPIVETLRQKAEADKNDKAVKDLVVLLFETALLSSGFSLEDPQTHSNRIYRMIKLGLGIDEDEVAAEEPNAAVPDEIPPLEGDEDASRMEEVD

| Binder | binding result (human Hsp90β) | fold increase in Kd with SEW04784 against without [1] |
| --- | --- | --- |
| B1 | binds | – |
| B2 | – | 2.5 fold |
